Test results as given in paper PMC8203622, “Tight docking of membranes before fusion represents a metastable state with unique properties” (Nature Communications, 2021).

Target: T1, syntaxin-1A (183–288) (Rattus norvegicus, UniProt P32851 183-288)
T1 construct: syntaxin-1A, Rattus norvegicus, residues 183-288
Test: assembly of a complex by mixing, isolated by ion exchange chromatography (MonoQ); purified proteins mixed overnight at 4 °C in a buffer containing CHAPS, then MonoQ
Conditions: both partners purified

T1 sequence (P32851 183-288): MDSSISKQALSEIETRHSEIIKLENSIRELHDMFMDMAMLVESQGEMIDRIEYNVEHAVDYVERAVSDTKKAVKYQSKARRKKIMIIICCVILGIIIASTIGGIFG

B1: synaptobrevin-2 fragment (49–96) (domain or fragment, Rattus norvegicus, UniProt P63045 49-96, looked up)
chain: NVDKVLERDQKLSELDDRADALQAGASQFETSAAKLKRKYWWKNLKMM
notes: synaptobrevin-2, Rattus norvegicus, residues 49-96; also called synaptobrevin fragment 49–96
**Q.** Does B1 bind?
**A.** binds
